This passage reports death of cochlea outer hair cells in Prestin-P2A-DTR/+ mice after DT results from US20240075098A1.

Some results are limits rather than exact numbers.

This assay deals with DTR.

In turn, Diphtheria toxin (from UniProt P00588) registered a death of cochlea outer hair cells in Prestin-P2A-DTR/+ mice after DT at P36 of over 90%.
